Assay results as given in article PMC6459835, “The RNA binding activity of the first identified trypanosome protein with Z-DNA-binding domains”.

Experiments:
Experiment in all cases: EMSA
Details in all cases: RBB50: 20 mM Tris-HCl pH 7.6, 50 mM KCl, 5 mM MgCl2, 100 mg/mL BSA (so in the source), 10% glycerol, 1 mM DTT, plus 100 mM KCl and 20 U RNasin; 20 ul, 30 min, RT …
[1] = test system: RBP7910 F167A (Trypanosoma brucei)
[2] = test system: RBP7910 P164A (Trypanosoma brucei)
[3] = test system: RBP7910 P76A (Trypanosoma brucei)
[4] = test system: RBP7910 P77A (Trypanosoma brucei)
[5] = test system: RBP7910 R53A (Trypanosoma brucei)
[6] = test system: RBP7910 T52A (Trypanosoma brucei)
[7] = test system: RBP7910 W188A (Trypanosoma brucei)
[8] = test system: RBP7910 W56A (Trypanosoma brucei)
[9] = test system: RBP7910 W79A (Trypanosoma brucei)

For gA6[14] (delta16G) gRNA with U-tail, the Kd [1] was 300 pM, the Kd [2] was 270 pM and the Kd [3] was 180 pM. For the same substance, the Kd [4] was 300 pM, the Kd [5] was 810 pM and the Kd [6] was 610 pM. It also gave a Kd [7] of 550 pM, a Kd [8] of 370 pM and a Kd [9] of 320 pM.
